Measurements as given in US20260242478A1 (published 2026).
Where no end group is shown, it is not given here.

B1: Phage-1195 (peptide)
peptide: YCEGHIPAYMAKCL
modifications: cysteine pairing not given here; also: displayed on phage by fusion to pIII, linker and pIII sequence not given here
B2: Phage-1184 (peptide)
peptide: YCEGHMGEYMLKCL
B3: Phage-1174 (peptide)
peptide: YCEGHLYEYMWKCL
modifications: cysteine pairing not given here; also: displayed on phage by fusion to pIII, linker and pIII sequence not given here
notes: Clonal phage of the Peptide-87 library; not shown: fused to the pIII filament of the bacteriophage
B4: Phage-1179 (peptide)
peptide: YCAGHLPQYMHKCL
modifications: cysteine pairing not given here; also: displayed on phage by fusion to pIII, linker and pIII sequence not given here
notes: as for B3
B5: Phage-1178 (peptide)
peptide: YCDGHVVEYMSKCL
modifications: cysteine pairing not given here; also: displayed on phage by fusion to pIII, linker and pIII sequence not given here
notes: as for B3
B6: Phage-1189 (peptide)
peptide: YCDGHSFHYMAKCL
B7: Phage-1187 (peptide)
peptide: YCEGHSAEYIGKCL
B8: Phage-1191 (peptide)
peptide: YCDGHANAYIWKCL
B9: Phage-1190 (peptide)
peptide: YCEGHSEMYMSKCL
B10: Phage-1186 (peptide)
peptide: YCAGHAEEYMLKCL
B11: Phage-1196 (peptide)
peptide: YCDGHAPIYMQKCL
modifications: cysteine pairing not given here; also: displayed on phage by fusion to pIII, linker and pIII sequence not given here
B12: Phage-1188 (peptide)
peptide: YCVGHLPEYMLECM
B13: Phage-1177 (peptide)
peptide: YCEGHAEQYMKKCL
modifications: cysteine pairing not given here; also: displayed on phage by fusion to pIII, linker and pIII sequence not given here
notes: as for B3
B14: Phage-1175 (peptide)
peptide: YCVGHSEQYMAKCL
modifications: cysteine pairing not given here; also: displayed on phage by fusion to pIII, linker and pIII sequence not given here
notes: as for B3
B15: Phage-1171 (peptide)
peptide: YCEGHAAAYMGKCL
modifications: cysteine pairing not given here; also: displayed on phage by fusion to pIII, linker and pIII sequence not given here
notes: as for B3
B16: Phage-1176 (peptide)
peptide: YCDGHEAEYMWKCL
modifications: cysteine pairing not given here; also: displayed on phage by fusion to pIII, linker and pIII sequence not given here
notes: as for B3
B17: Phage-1193 (peptide)
peptide: YCEGHAQEYMAKCL
B18: Phage-1182 (peptide)
peptide: YCDGHAMEYMEKCL
B19: Phage-1192 (peptide)
peptide: YCEGHIPMYMLKCM
B20: Phage-1180 (peptide)
peptide: YCDGHIWPWIEKCL
modifications: cysteine pairing not given here; also: displayed on phage by fusion to pIII, linker and pIII sequence not given here
notes: as for B3
B21: Phage-1185 (peptide)
peptide: YCDGHTKEYMWKCL
B22: Phage-1183 (peptide)
peptide: YCEGHLWEYLAKCL
B23: Phage-1194 (peptide)
peptide: YCDGHAKVYIWKCL
B24: Phage-1172 (peptide)
peptide: YCDGHEQQYMEKCL
modifications: cysteine pairing not given here; also: displayed on phage by fusion to pIII, linker and pIII sequence not given here
notes: as for B3
B25: Phage-1181 (peptide)
peptide: YCEGHSSLYLEKCL
modifications: cysteine pairing not given here; also: displayed on phage by fusion to pIII, linker and pIII sequence not given here
notes: as for B3
B26: Phage-1173 (peptide)
peptide: YCDGHLQMYMMKCL
modifications: cysteine pairing not given here; also: displayed on phage by fusion to pIII, linker and pIII sequence not given here
notes: as for B3

Assays:
[1] = target: T1, Anti-CD28 Fab (SEQ ID NOs: 696, 697); assay: phage ELISA; captured anti-CD28 Fab pre-incubated with CD28 antigen as competitor, anti-M13 HRP;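 further: crude clonal phage supernatants added without washing after CD28 pre-incubation, bound phage detected with HRP anti-M13 antibody, reference wells got blocking buffer lacking CD28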
T1 construct: In the phage ELISA the Fab was biotinylated and captured on neutravidin coated plates
T1 sequence (VH, as listed by the source, chain 1 of 2): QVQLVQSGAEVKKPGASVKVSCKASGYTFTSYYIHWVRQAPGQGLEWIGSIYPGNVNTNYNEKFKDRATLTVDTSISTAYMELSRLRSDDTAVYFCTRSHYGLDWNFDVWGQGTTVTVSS
T1 sequence (VL, as listed by the source, chain 2 of 2): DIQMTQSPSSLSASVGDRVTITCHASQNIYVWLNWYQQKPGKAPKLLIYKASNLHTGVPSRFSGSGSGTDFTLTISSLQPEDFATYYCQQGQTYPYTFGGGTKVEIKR
Description: (§1) After panning, phage infected bacteria were plated out and colonies picked into 96 well blocks. Clonal phage was then amplified and separated from bacterial cells via centrifugation.
(§2) Clonal phage were harvested as crude supematants and screened via standard ELISAs. […] Prior to the addition of clonal phage, wells were incubated with blocking buffer and CD28 antigen or blocking buffer alone. Without washing or aspirating, clonal phage supematants were then added to the wells and incubated for a short time. Wells were then washed followed by detection of bound phage using a horse radish conjugated anti-M13 antibody. Clonal phage of interest were then sent for sequence analysis.

[2] = target: T1, Anti-CD28 Fab (SEQ ID NOs: 696, 697); assay: phage ELISA; biotinylated anti-CD28 Fab on neutravidin plate, clonal phage supernatant, anti-M13 HRP
Description: as §1, §2

[3] = target: T2, Anti-CD28 Fab (SEQ ID NOs: 696, 697); assay: clonal phage ELISA; biotinylated anti-CD28 Fab on neutravidin plate, bound phage detected with anti-M13 HRP
T2 construct: Biotinylated and captured on neutravidin coated plates in the phage ELISA
T2 sequence (VH, as listed by the source, chain 1 of 2): as the sequence (VH, as listed by the source, chain 1 of 2) above
T2 sequence (VL, as listed by the source, chain 2 of 2): as the sequence (VL, as listed by the source, chain 2 of 2) above
Description: as §1, §2

[4] = target: T2, Anti-CD28 Fab (SEQ ID NOs: 696, 697); assay: clonal phage ELISA on captured anti-CD28 Fab; wells pre-incubated with CD28 antigen as competitor
Description: as §1, §2

[5] = target: Anti-CD28 Fab (SEQ ID NOs: 696, 697); assay: phage binding ELISA; biotinylated anti-CD28 Fab on neutravidin plate, clonal phage supernatant, anti-M13 HRP;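 further: crude clonal phage supernatants screened after wells were preincubated either with CD28 antigen in blocking buffer or with blocking buffer only, phage added without washing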
Target sequence in this assay (VH, as listed by the source, chain 1 of 2): as the sequence (VH, as listed by the source, chain 1 of 2) above
Target sequence in this assay (VL, as listed by the source, chain 2 of 2): as the sequence (VL, as listed by the source, chain 2 of 2) above
Description: as §1, §2

[6] = target: Anti-CD28 Fab (SEQ ID NOs: 696, 697); assay: phage binding ELISA on captured anti-CD28 Fab; competitor CD28 antigen pre-incubated in the wells
Target sequence in this assay (VH, as listed by the source, chain 1 of 2): as the sequence (VH, as listed by the source, chain 1 of 2) above
Target sequence in this assay (VL, as listed by the source, chain 2 of 2): as the sequence (VL, as listed by the source, chain 2 of 2) above
Description: as §1, §2

Binder | Phage binding ELISA, Anti-CD28 Fab signal [3] | Phage binding ELISA, Anti-CD28 Fab signal in the presence of CD28 [4] | Anti-CD28 Fab (SEQ ID NOs: 696, 697) signal [5] | Anti-CD28 Fab signal in the presence of CD28 [6] | further results
B1 | – | – | – | – | Anti-CD28 Fab signal in the presence of CD28 (phage binding ELISA) [1]: 0.08; Anti-CD28 Fab signal (phage binding ELISA) [2]: 1.06
B2 | 1.1 | 0.06 | – | – | –
B3 | – | – | 1.13 | 0.07 | –
B4 | – | – | 1.11 | 0.08 | –
B5 | – | – | 1.12 | 0.08 | –
B6 | 1.08 | 0.06 | – | – | –
B7 | 1.08 | 0.07 | – | – | –
B8 | 1.07 | 0.09 | – | – | –
B9 | 1.07 | 0.09 | – | – | –
B10 | 1.09 | 0.07 | – | – | –
B11 | – | – | – | – | Anti-CD28 Fab signal in the presence of CD28 (phage binding ELISA) [1]: 0.06; Anti-CD28 Fab signal (phage binding ELISA) [2]: 1.06
B12 | 1.08 | 0.07 | – | – | –
B13 | – | – | 1.12 | 0.07 | –
B14 | – | – | 1.13 | 0.06 | –
B15 | – | – | 1.14 | 0.08 | –
B16 | – | – | 1.13 | 0.1 | –
B17 | 1.06 | 0.08 | – | – | –
B18 | 1.11 | 0.08 | – | – | –
B19 | 1.06 | 0.09 | – | – | –
B20 | – | – | 1.11 | 0.11 | –
B21 | 1.1 | 0.06 | – | – | –
B22 | 1.1 | 0.05 | – | – | –
B23 | 1.06 | 0.08 | – | – | –
B24 | – | – | 1.14 | 0.06 | –
B25 | – | – | 1.11 | 0.08 | –
B26 | – | – | 1.14 | 0.07 | –
